{"source": "patent US20240067947", "proteins": {"B1": {"name": "Truncated wild-type ADAMTS13 (protein)", "chain": "AAGGILHLELLVAVGPDVFQAHQEDTERYVLTNLNIGAELLRDPSLGAQFRVHLVKMVILTEPEGAPNITANLTSSLLSVCGWSQTINPEDDTDPGHADLVLYITRFDLELPDGNRQVRGVTQLGGACSPTWSCLITEDTGFDLGVTIAHEIGHSFGLEHDGAPGSGCGPSGHVMASDGAAPRAGLAWSPCSRRQLLSLLSAGRARCVWDPPRPQPGSAGHPPDAQPGLYYSANEQCRVAFGPKAVACTFAREHLDMCQALSCHTDPLDQSSCSRLLVPLLDGTECGVEKWCSKGRCRSLVELTPIAAVHGRWSSWGPRSPCSRSCGGGVVTRRRQCNNPRPAFGGRACVGADLQAEMCNTQACEKTQLEFMSQQCARTDGQPLRSSPGGASFYHWGAAVPHSQGDALCRHMCRAIGESFIMKRGDSFLDGTRCMPSGPREDGTLSLCVSGSCRTFGCDGRMDSQQVWDRCQVCGGDNSTCSPRKGSFTAGRAREYVTFLTVTPNLTSVYIANHRPLFTHLAVRIGGRYVVAGKMSISPNTTYPSLLEDGRVEYRVALTEDRLPRLEEIRIWGPLQEDADIQVYRRYGEEYGNLTRPDITFTYFQPKPRQA"}, "B2": {"name": "mrADAMTS13 (truncated modified human recombinant ADAMTS13) (protein)", "chain": "AAGGILHLELLVAVGPDVFQAHQEDTERYVLTNLNIGAELLRDPSLGAQFRVHLVKMVILTEPEGAPNITANLTSSLLSVCGWSQTINPEDDTDPGHADLVLYITRFDLELPDGNRQVRGVTQLGGACSPTWSCLITEDTGFDLGVTIAHEIGHSFGLEHDGAPGSGCGPSGHVMASDGAAPRAGLAWSPCSRRQLLSLLSAGRARCVWDPPRPQPGSAGHPPDAQPGLYYSANEQCRVAFGPKAVACTFAREHLDMCQALSCHTDPLDQSSCSRLLVPLLDGTECGVEKWCSKGRCRSLVELTPIAAVHGRWSSWGPRSPCSRSCGGGVVTRRRQCNNPRPAFGGRACVGADLQAEMCNTQACEKTQLEFMSQQCARTDGQPLRSSPGGASFYHWGAAVPHSQGDALCRHMCRAIGESFIMKRGDSFLDGTRCMPSGPREDGTLSLCVSGSCRTFGCDGRMDSQQVWDRCQVCGGDNSTCSPRKGSFTAGRAREYVTFLTVTPNLTSVYIANHRPLFTHLAVRIGGRYVVAGKMSISPNTTYPSLLEDGRVEYRVALTEDRLPRLEEIRIWGPLQEDADIQVYRRYGEEYGNLTRPDITFTYFQPKPRQAKGELGTELGSEGKPIPNPLLGLDSTRTGHHHHHH"}}, "target": "T1, VWF-73 FRETS substrate, P04275", "T1 chain": "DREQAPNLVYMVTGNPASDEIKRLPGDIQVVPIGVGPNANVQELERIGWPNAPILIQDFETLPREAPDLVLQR"}
{"protein": "B1", "values": [{"measurement": "ADAMTS13 activity (VWF-73 FRETS assay)", "result": "demonstrated enhanced activity of mrADAMTS13 compared to truncated wild type ADAMTS13"}]}
{"protein": "B2", "values": [{"measurement": "ADAMTS13 activity (VWF-73 FRETS assay)", "result": "demonstrated enhanced activity of mrADAMTS13 compared to truncated wild type ADAMTS13"}, {"measurement": "ADAMTS13 specific activity of mrADAMTS13 released from PLGA microparticles (FRETS VWF-73 fluorescent emission)", "result": "This data demonstrates active ADAMTS13 enzyme is present in all samples including at 120 hours"}]}
